The target in assay [1] is T1, human PVRL2-His (Catalog #2229-N2-050/CF, R&D Systems) (human, UniProt Q92692 32-360).
T1 construct: Bought (R&D Systems); also called His-tagged PVRL2 recombinant protein; PVRL2 (CD112)
T1 sequence (looked up): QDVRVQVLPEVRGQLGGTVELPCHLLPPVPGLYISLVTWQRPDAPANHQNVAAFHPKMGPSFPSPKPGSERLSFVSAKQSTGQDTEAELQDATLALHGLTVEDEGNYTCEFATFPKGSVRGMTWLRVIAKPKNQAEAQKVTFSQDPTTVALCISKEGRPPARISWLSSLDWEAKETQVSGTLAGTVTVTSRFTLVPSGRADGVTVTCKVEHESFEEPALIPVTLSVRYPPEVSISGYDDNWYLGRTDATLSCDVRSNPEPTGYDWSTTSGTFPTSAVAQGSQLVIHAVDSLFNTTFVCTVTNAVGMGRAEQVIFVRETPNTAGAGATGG
Briefly: SPR ProteOn, analyte over Fc-captured ligand; complex kinetics.

The target of assay [2] is T2, human PVRIG (Poliovirus Receptor Related Immunoglobulin Domain Containing Protein), full length on cells (human, UniProt Q6DKI7 41-326).
T2 construct: whole, on cells; Over-expressed on HEK293 (some pools flag-tagged) or endogenous on Jurkat, CA46, T cells, NK cells, TILs; also called hPVRIG; HEK hPVRIG
T2 sequence (looked up): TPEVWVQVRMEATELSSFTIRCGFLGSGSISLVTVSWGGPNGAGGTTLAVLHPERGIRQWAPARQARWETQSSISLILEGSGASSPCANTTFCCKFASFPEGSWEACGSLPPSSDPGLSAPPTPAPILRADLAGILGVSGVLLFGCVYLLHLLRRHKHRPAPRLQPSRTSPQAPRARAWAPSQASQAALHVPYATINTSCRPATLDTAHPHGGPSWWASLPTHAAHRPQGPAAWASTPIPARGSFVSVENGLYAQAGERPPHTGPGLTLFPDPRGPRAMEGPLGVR
Briefly: FACS on resting human CD4+ T cells.

Assay [3] deals with T2, human PVRIG (Poliovirus Receptor …). Briefly: FACS on CD4+ T cells, days 3-6 of activation.
Assay [4] deals with T3, L95R/T97I cyno PVRIG ECD with C-terminal 6xHis tag (cynomolgus monkey).
T3 chain: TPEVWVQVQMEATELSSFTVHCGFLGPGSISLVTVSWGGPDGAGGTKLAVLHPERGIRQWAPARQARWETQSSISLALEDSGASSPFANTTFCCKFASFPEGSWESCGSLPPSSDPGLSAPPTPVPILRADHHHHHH
Kind of assay: ELISA on coated His-tagged PVRIG variant. On the technique in general: In an ELISA, binding on a coated surface is turned into a signal by an enzyme label.

In assay [5] the target is T2, human PVRIG (Poliovirus Receptor …). Briefly: FACS dose titration on PVRIG over-expressing HEK293 cells. The protocol:
FACS screening of the reformatted antibodies was done similarly to the PPE based screen described herein, except that a dose-dependent titration of the purified antibodies was performed. The human PVRIG over-expressing HEK293 cells, or the un-transfected HEK293 cells, were incubated with varying concentrations (0-10 μg/ml) of the anti PVRIG antibodies or isotype controls in FACS buffer at 4° C. for 60 mins. […] Cells were washed twice and re-suspended in a final volume of 80 μl of FACS buffer and Propidium Iodide (Biolegend cat #421301) diluted 1:1000. Samples were analyzed using an Intellicyt HTFC screening system (Intellicyt). Data was analyzed using FlowJo (DeNovo), exported to Excel (Microsoft) and plotted in GraphPad Prism (GraphPad Software, Inc.).
All unique ELISA and FACS binders were reformatted for expression as human IgG1 molecules in Expi293 cells. […] These reformatted antibodies were tested for retained binding to PVRIG over-expressing HEK293 cells alongside an irrelevant human IgG1 isotype control. All antibodies were also tested against un-transfected HEK293 cells.

The target is the same in assay [6]. Briefly: flow cytometry, Alexa 647 IgG titrated on HEK 293 cells expressing human PVRIG, 1:1 equilibrium fit. Background: A flow cytometer gives signals particle by particle.

Residue numbers refer to the chain shown, from its start.

The Kd is the concentration at which binding is half-saturated. Read a low Kd as higher affinity.

B1: human DNAM-1 fusion protein (human fc, R&D Systems) (Fc fusion, UniProt Q15762 19-247, looked up, not shown: a dimerising Fc or GST)
chain: EEVLWHTSVPFAENMSLECVYPSMGILTQVEWFKIGTQQDSIAIFSPTHGMVIRKPYAERVYFLNSTMASNNMTLFFRNASEDDVGYYSCSLYTYPQGTWQKVIQVVQSDSFEAAVPSNSHIVSEPGKNVTLTCQPQMTWPVQAVRWEKIQPRQIDLLTYCNLVHGRNFTSKFPRQIVSNCSHGRWSVIVIPDVTVSDSGLYRCYLQASAGENETFVMRLTVAEGKTDN
notes: Bought
For B1, the binding result in assay [1] is listed as “binds”.

B2: Anti-human PVRIG - CPA.7.021, Human IgG2, conjugated to AF-647 (antibody, V domains shown)
VH: EVQLVESGGGVVKPGGSLRLSCAASGFTFGTSSMNWVRQAPGKGLEWVAVISFDGTEIHYADSVKGRFTISRDNSKSTVFLQMNSLRPDDTALYYCAKGSGNIYFYSGMDVWGQGTTVTVSS
VL: DIQMTQSPSTLSASVGDRVTITCRAGQSISGWLAWFQQKPGKAPNLLIYETSTLESGVPSRFSGSGSGTEYTLTISSLQPDDFATYYCQQYYSYPLTFGQGTKVEIK
modifications: Alexa Fluor 647 dye conjugated to the antibody (site not stated).
notes: also called Anti PVRIG-CPA.7.021 ab; CPA.7.021 IgG2 A647
On to B2, for which the figures for the “fold staining over isotype control” value in assay [2] and in assay [3] were 3 fold and 2 to 3 fold, respectively.

B3: CPA.7.021 human IgG1 (antibody, V domains shown)
VH: B2 VH
VL: DIQMTQSPSTLSASVGDRVTITCRAGQSISGWLAWFQQKPGKAPNLLIYETSTLESGVPSRFSGSGSGTEYTLTISSLQPDDFATYYCQQYYSYPLTFGQGTKVEIKR
As for B3, the binding result in assay [4] was “binds”. In addition, the Kd in assay [5] was 11.2 nM.

B4: CPA.7.021 IgG conjugated with Alexa 647 (antibody, V domains shown)
VH: B2 VH
VL: B2 VL
modifications: Alexa Fluor 647 dye conjugated to the antibody (site not stated).
notes: also called Alexa647 labelled CPA.7.021 IgG; conjugated CPA.7.021
Consider B4, for which, in assay [6], binding was characterised by a dissociation constant (Kd) of 2.5 nM.

B5: CPA.7.050 human IgG1 (antibody, V domains shown)
VH: EVQLVQSGAEVKKPGSSVKVSCKASGGTFSSYAISWVRQAPGQGLEWMGGIIPIFGTANYAQKFQGRVTITADKSTSTAYMELSSLRSEDTAVYYCARGPWYYDSSGYSSYAYYMDVWGQGTTVTVSS
VL: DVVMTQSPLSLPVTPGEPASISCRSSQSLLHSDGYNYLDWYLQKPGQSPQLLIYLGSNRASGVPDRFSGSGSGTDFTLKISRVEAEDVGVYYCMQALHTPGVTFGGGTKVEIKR
notes: also called CPA.7.50
Regarding B5, in assay [5], the Kd is 68.3 nM.

B6: CPA.7.036 human IgG1 (antibody, V domains shown)
VH: QVQLVQSGAEVKKPGSSVKVSCKASGGTFSSSAISWVRQAPGQGFEWMGGIIPIYGITDYAQKFQGRVTITTDESTSTAYMELSSLTSEDTAVYYCARDDTARRVRGVPYYYYYAMDVWGQGTTVTVSS
VL: DIVMTQTPLSLPVTPGEPASISCRPSQSLLDSDDGNTYLDWYLQKPGQSPQLLIHTLSYRASGVPDRFSGSGSGTDFTLKISRVEAEDVGVYYCMQRLQFPLTFGGGTKVEIKR
notes: also called CPA.7.36
With B6, binding in assay [5] was characterised by a dissociation constant (Kd) of 6 nM.

B7: CPA.7.038 human IgG1 (antibody, V domains shown)
VH: B6 VH
VL: DIQMTQSPSSLSASVGDRVTITCQASRDISDSLSWYQQKPGKAPKLLIFDASNLKTGVSSRFSGSGSGTDFTFTISSLQPEDIATYYCHQYDNLPLTFGGGTKVEIKR
The molecule B7 gave a Kd in assay [5] of 20.3 nM. This Kd lies about 3.4-fold higher than the previous one.

B8: CPA.7.049 human IgG1 (antibody, V domains shown)
VH: B6 VH with V2M
VL: B6 VL with I21M, P25S, Q27R, Y38H, H55Q, T56S, K80E, V91I, L98K, Q99E
Molecule B8 gave a Kd in assay [5] of 19.9 nM.

The values are drawn from US20200385445A1 (COMPUGEN, published 2020).
